According to publication PMC6093632:

Biological target: full-length human TRPV6 (transient receptor potential vanilloid subfamily member 6) (human)
Experiment: cryo-EM structure

Sequence of full-length human TRPV6 (transient receptor potential vanilloid subfamily member 6) (human) (Q9H1D0 whole entry): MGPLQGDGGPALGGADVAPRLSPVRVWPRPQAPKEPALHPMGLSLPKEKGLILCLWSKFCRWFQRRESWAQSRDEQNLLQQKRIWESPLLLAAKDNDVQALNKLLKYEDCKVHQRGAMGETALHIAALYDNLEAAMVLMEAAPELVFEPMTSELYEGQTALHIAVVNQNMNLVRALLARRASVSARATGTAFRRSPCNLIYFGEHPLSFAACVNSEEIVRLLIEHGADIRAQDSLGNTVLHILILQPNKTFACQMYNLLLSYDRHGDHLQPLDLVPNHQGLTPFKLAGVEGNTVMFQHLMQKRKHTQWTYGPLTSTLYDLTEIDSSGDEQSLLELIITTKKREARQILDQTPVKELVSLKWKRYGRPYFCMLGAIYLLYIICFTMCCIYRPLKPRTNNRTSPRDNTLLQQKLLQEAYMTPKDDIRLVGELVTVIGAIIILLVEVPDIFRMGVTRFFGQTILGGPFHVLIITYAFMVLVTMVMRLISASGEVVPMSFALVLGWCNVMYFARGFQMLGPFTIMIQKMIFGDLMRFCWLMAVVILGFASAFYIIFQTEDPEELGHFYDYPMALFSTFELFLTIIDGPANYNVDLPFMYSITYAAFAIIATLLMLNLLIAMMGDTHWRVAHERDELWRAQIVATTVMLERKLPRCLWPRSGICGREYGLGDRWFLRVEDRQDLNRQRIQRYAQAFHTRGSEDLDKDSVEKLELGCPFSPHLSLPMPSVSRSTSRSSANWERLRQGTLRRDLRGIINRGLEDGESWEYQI

Substance: human calmodulin (CaM), recombinant (from UniProt P0DP23 1-149) (natural protein)
- stoichiometry N (CaM molecule per hTRPV6 tetramer): 1
